Laboratory results published in PMC10500460.

Columns and labels:
AP2-μ2 (APμ2-HA) = AP2-μ2 (APμ2-HA) (UniProt P84092); assay: biotin-peptide pull-down from lysate, Western blot; conditions: reference: unphosphorylated E7 13-28 peptide; sites T19,T20
PTPN13 = PTPN13 (UniProt Q12923); assay: biotin-peptide pull-down from lysate, Western blot; conditions: reference: unphosphorylated E7 13-28 peptide; sites T19,T20
PARD3 = PARD3 (UniProt Q8TEW0); assay: biotin-peptide pull-down from lysate, Western blot; conditions: reference: unphosphorylated E7 13-28 peptide; sites T19,T20
pRb = pRb (UniProt P06400); assay: biotin-peptide pull-down from lysate, Western blot; conditions: reference: unphosphorylated E7 13-28 peptide; sites T19,T20
IQGAP1 = IQGAP1 (UniProt P46940); assay: GST pull-down after in vitro phosphorylation; conditions: reference: GST-E7 not kinase-treated; sites T5,T7,T19,T20
PTPN14 = PTPN14 (UniProt Q15678); assay: GST pull-down after in vitro phosphorylation; conditions: reference: GST-E7 not kinase-treated; sites T5,T7,T19,T20

| Substance | binding against the reference (AP2-μ2 (APμ2-HA)) | binding against the reference (PTPN13) | binding against the reference (PARD3) | binding against the reference (pRb) | binding against the reference (IQGAP1) | binding against the reference (PTPN14) |
| --- | --- | --- | --- | --- | --- | --- |
| HPV16 E7 13-28 (from UniProt P03129) pT19/pT20 E7 13-28 peptide | stronger | gained | gained | stronger | – | – |
| HPV16 E7 (from UniProt P03129) GST-E7 phosphorylated with CKI and GSK3 | – | – | – | – | stronger | same |
